Assay [1] has as its target T1, human P-cadherin on the surface of cells (human, UniProt P22223 108-829). Nature of the assay: cell-based or functional assay.
Assay [2] concerns the target T1, human P-cadherin on the surface of cells. Nature of the assay: cell-based or functional assay. This is another data set of the same source.
Assay [3] has the same target. The assay is described as follows: cell-based or functional assay. This is another data set of the same source.
Assay [4] has the same target. The assay is described as follows: epitope competition on A431 cells; competitor: biotinylated 129-1c4 IgG, DELFIA.
The target is the same in assay [5]. Nature of the assay: epitope competition on A431 cells; competitor: biotinylated 129-1c4 IgG at 3x KD, DELFIA.
Assay [6] has the same target. Nature of the assay: cell-based or functional assay. The source holds these as a separate data set.
In assay [7] the target is T2, Recombinant human P-cadherin Fc (R&D Systems 861-PC-100) (human, UniProt P22223 108-654).
T2 construct: also called recombinant human P-cadherin/Fc fusion protein; hCad/Fc; not shown: Fc part of the bought fusion protein
The assay is described as follows: ELISA on coated antigen, relative KD.

Assay [8] addresses T2, Recombinant human P-cadherin Fc (R&D …). The assay is described as follows: ELISA; KD on E-cadherin over KD on P-cadherin.
Assay [9] deals with T3, recombinant human E-cadherin (R&D Systems 648-EC-100) (human, UniProt P12830 155-707).
T3 construct: Bought protein
T3 sequence (looked up): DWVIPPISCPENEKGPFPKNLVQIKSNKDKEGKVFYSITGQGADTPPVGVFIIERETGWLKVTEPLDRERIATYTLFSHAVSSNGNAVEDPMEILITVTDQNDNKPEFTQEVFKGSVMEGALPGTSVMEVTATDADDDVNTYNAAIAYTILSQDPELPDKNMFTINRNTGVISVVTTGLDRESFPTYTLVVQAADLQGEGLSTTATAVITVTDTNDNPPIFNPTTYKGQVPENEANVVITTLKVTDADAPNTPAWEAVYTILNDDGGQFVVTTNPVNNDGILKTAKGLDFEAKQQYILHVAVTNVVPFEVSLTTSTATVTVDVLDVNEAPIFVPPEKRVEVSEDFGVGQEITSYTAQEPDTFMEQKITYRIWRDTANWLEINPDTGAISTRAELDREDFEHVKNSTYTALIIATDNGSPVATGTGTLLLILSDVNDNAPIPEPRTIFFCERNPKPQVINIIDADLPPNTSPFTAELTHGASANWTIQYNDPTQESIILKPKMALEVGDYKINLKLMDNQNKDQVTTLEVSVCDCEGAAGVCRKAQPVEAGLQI
The assay is described as follows: ELISA on coated E-cadherin, IgG titrated from 50 nM down to 0.64 nM.

The target of assay [10] is T2, Recombinant human P-cadherin Fc (R&D …). Nature of the assay: SPR (BIACORE 3000), hCad/Fc immobilised, scFv as analyte, 1:1 fit.
The target in assay [11] is T4, mouse P-cadherin/Fc fusion protein (mouse, UniProt P10287 100-647, limits assumed).
T4 construct: also called mCad/Fc; not shown: Fc part of the fusion protein
T4 sequence (looked up): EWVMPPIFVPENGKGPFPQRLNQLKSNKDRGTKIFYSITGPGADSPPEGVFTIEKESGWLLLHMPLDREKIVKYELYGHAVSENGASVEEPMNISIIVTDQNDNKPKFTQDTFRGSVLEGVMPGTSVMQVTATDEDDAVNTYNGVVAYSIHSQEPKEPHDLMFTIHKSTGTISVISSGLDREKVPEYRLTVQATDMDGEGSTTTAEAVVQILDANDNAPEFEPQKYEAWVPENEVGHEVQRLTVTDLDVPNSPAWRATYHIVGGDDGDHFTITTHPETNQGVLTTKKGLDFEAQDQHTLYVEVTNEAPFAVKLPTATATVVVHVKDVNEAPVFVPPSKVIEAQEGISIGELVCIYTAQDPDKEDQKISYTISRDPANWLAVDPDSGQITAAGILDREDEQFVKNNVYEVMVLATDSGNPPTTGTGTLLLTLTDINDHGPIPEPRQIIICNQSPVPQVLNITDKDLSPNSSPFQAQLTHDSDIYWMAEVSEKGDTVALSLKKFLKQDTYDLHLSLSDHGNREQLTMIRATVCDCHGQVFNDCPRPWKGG
Nature of the assay: SPR (BIACORE 3000), mCad/Fc immobilised, scFv as analyte, 1:1 fit.

Assay [12] deals with T3, recombinant human E-cadherin (R&D …). Nature of the assay: ELISA on coated antigen, relative KD.

We go through eight molecules from patent US20060240001A1 (AGOURON PHARMACEUTICALS, published 2006).

Where a chain is given by its changes, count along the chain named.

B1: 129-1c4 (antibody, V domains shown)
VH: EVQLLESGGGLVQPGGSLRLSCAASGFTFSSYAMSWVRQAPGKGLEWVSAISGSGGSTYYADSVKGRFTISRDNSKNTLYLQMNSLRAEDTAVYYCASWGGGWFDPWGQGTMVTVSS
VL: QSALTQPASVSGSPGQSITISCTGTSNDVGAYNYVSWYQQHPGKAPKLILSEVNKRPSGVSNRFSGSKSGNTASLSISGLQAEDEADYYCSSFTSGSTFMLFGGGTKLTVL
notes: also called parent IgG
B1: the “IC50 in the A431 adhesion assay” value in assay [1] is 1000 to 3000 nM. The “SW480 Aggregation Assay Mean IC50” value in [2] was found to be 35 nM. Also, the “SW480 Spheroid Disruption Assay, Fold Increased Disruption vs Control at 5 nM” value in assay [3] was 4 fold. Also, the IC50 in assay [4] is 29 nM.

B2: scFv variant of 129-1c4 with VH CDR3 SEQ ID NO: 207 and VL CDR3 SEQ ID NO: 291 (scFv, V domains shown)
VH: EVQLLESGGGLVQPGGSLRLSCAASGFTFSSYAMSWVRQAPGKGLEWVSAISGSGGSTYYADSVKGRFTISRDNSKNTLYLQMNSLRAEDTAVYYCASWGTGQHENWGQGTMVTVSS
VL: B1 VL with M100N
notes: His-tagged purified scFv; also called 207 / 291
As for B2, the IC50 in [5] is 2.73 nM.

B3: g-194-g09 (antibody, V domains shown)
VH: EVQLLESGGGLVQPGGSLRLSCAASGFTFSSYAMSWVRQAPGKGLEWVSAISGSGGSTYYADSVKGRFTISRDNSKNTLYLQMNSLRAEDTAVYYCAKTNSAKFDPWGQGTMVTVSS
VL: B1 VL with I49M, L50I, S76T, F93Y, S95M
notes: Tested as IgG; also called germlined version of 194-g09
In the case of B3, the “A431 Adhesion Assay Mean IC50 (nM) (n = 2)” value in [6] came out at 1 nM. Moreover, the “SW480 Aggregation Assay Mean IC50” value in assay [2] amounted to 2.6 nM. Further, the “SW480 Spheroid Disruption Assay, Fold Increased Disruption vs Control at 5 nM” value in assay [3] is 14 fold. For the same molecule, in [7], the Kd was determined as 2.6 nM. Also, the “KD(E)/KD(P)” value in assay [8] is over 100. Besides, the binding result in assay [9] is “no binding (tested: 50 nM)”.

B4: 196-g03 scFv (scFv, V domains shown)
VH: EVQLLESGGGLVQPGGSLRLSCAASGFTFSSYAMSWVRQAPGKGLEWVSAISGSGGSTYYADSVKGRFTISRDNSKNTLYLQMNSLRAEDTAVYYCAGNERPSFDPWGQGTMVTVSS
VL: B1 VL with S91T, F93Y, S95M
notes: Single chain Fv in the assay
Consider B4, for which the values for the Kd in assay [10] and in assay [11] were 1.1 nM and 0.76 nM, respectively. The koff came to 0.0007 s⁻¹ in assay [10] and 0.00047 s⁻¹ in assay [11].

B5: 194-b09 scFv (scFv, V domains shown)
VH: not shown
VL: B1 VL with S97L, T98P, F99W, M100V, L101V
notes: Single chain Fv in the assay
As for B5, binding in [11] was put at a Kd of 11 nM.

B6: 194-g09 scFv (scFv, V domains shown)
VH: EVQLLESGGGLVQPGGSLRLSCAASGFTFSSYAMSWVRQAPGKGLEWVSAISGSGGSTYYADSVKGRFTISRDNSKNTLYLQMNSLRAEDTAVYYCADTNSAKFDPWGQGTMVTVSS
VL: B1 VL with Q40R, D87E, F93Y, S95M
notes: Single chain Fv in the assay
As to B6, in assay [10], the equilibrium dissociation constant (Kd) was 2.6 nM and the koff was determined as 0.0016 s⁻¹. In assay [11], this molecule returned a Kd of 1.8 nM and a koff of 0.00081 s⁻¹.

B7: g-194-b09 (antibody, V domains shown)
VH: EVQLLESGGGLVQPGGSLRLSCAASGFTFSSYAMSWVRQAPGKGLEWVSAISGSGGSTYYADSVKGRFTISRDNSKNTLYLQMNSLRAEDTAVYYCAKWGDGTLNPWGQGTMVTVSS
VL: B1 VL with I49M, L50I, S76T, S97L, T98P, F99W, M100V, L101V
notes: Tested as IgG
Take B7: the “A431 Adhesion Assay Mean IC50 (nM) (n = 2)” value in assay [6] came to 0.77 nM. For the same molecule, the “SW480 Aggregation Assay Mean IC50” value in assay [2] stood at 0.9 nM. Besides, the “SW480 Spheroid Disruption Assay, Fold Increased Disruption vs Control at 5 nM” value in assay [3] is 10 fold. The Kd in [7] came to 0.788 nM; in assay [12] it was 2.16 nM. The “KD(E)/KD(P)” value in [8] amounted to 3.

B8: scFv variant of 129-1c4 with VH CDR3 SEQ ID NO: 163 and VL CDR3 SEQ ID NO: 43 (scFv, V domains shown)
VH: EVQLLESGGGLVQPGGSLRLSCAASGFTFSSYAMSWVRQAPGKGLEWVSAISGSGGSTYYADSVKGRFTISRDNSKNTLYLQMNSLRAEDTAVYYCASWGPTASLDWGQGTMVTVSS
VL: B1 VL with S91T, F93Y, S95M
notes: His-tagged purified scFv; also called 163 / 43
In assay [5], B8 displayed an IC50 of 2.45 nM.
